Measured values from the supplement of paper PMC10126150.
± gives the standard deviation of the averaged measurements.

These sequences were tested on ATP (assay: switch fluorescence ratio, 500 uM ATP over buffer (Cy3 cluster intensity, sum of 5 cycles each) (fold (ratio)); higher = stronger signal-on switching upon ATP binding; sequences stand for … in TCGTCGGCAGCGTCAGATGTGTATAAGAGACAGTTTTTTTTTTTTTTTTTTTTTTTTT…TC). Conditions: aptamer strand: ATP DNA aptamer (quencher-CACCTGGGGGAGTATTGCGGAGGAAGG + anchor), 100 nM annealed; ATP concentration: 500 uM.
Method in brief: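 Cy3-labelled switching-strand clusters on a modified Illumina MiSeq flow-cell were annealed to 100 nM quencher-labelled ATP aptamer, imaged in selection buffer, then imaged after 15 min with 500 uM ATP at 22 °C. Five buffer/ATP cycles ran, with NaOH stripping and re-annealing between them. The fluorescence ratio is summed target-cycle over summed buffer-cycle Cy3 intensity per cluster, averaged per switch-domain sequence. Clusters outside 100-1000 RFU were excluded.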
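Note: ATP exposure 15 min at 22 °C before imaging.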

Point of comparison: AGGGGGCATC, switch fluorescence ratio 1.01 ± 0.07. Against it:
- GGGCGGTCTT — within error, 1.06 ± 0.097
- GTAGTAGATG — the same, 1.013 ± 0.0097
- AACTTTCCTC — higher, 2.49 ± 0.076
- AATGGTTGAC — within error, 0.988 ± 0.017
- AACGGGAGAT — within error, 0.991 ± 0.048
- TTTCATATTT — within error, 1.03 ± 0.014
- TGTATGTTTT — within error, 0.962 ± 0.046
- ATTAGTCCGG — within error, 0.994 ± 0.03
- AATTTTAGAA — within error, 1 ± 0.053
- ACCCTTCCAA — higher, 1.72 ± 0.072
- GTCTGGCAGT — the same, 1.01 ± 0.043
- CCGAAGGTTA — within error, 1.09 ± 0.032
- TTACAAGGGC — the same, 1.013 ± 0.0087
- AGTTCAGGGC — within error, 1.003 ± 0.004
- CGGATCGGGT — within error, 1.004 ± 0.0015
- GTTCGGGCTC — within error, 1.03 ± 0.019
- CTAGGGGGGA — within error, 0.997 ± 0.0052
- GGATATGGTT — within error, 0.987 ± 0.034
- GTTTCTAGCT — within error, 0.969 ± 0.028
- AAAAAGGGTG — within error, 1 ± 0.045
- TAGATGAGAG — within error, 0.969 ± 0.012
- GCATTCGATG — within error, 0.981 ± 0.013
- GGGGGTGGGG — the same, 1.01 ± 0.037
- GGCCGGTGAA — within error, 0.9843 ± 0.0045
- ATGTTGGGAC — within error, 1.02 ± 0.032
- TAATTTGAGT — within error, 1 ± 0.014
- CCGGGGATTC — higher, 1.36 ± 0.2
- ACGATTTTTA — within error, 1 ± 0.013
- CCGTAATAGG — higher, 4.83 ± 0.55
- GTGATTTATT — within error, 0.988 ± 0.019
- TGAGTGTGAG — within error, 0.985 ± 0.035
- CGAAACTCTG — within error, 1 ± 0.03
- GGATTTTTTT — within error, 1 ± 0.032
- ACGTTGTTTG — within error, 0.983 ± 0.02
- ATCGGTCTTT — within error, 0.997 ± 0.084
- AGGGGTCCCG — lower, 0.93546 ± 0.00063
- ACAGGAAGAT — within error, 1.03 ± 0.035
- TAGGGTCGGT — within error, 1 ± 0.041
- AAGGTGAATC — within error, 1.04 ± 0.019
- TTTGCGATGG — within error, 1.09 ± 0.011
- TTAACCCTTT — within error, 1.02 ± 0.021
- GGGTTTCAAG — within error, 1.05 ± 0.04
- CGCTCCGGGG — within error, 1.06 ± 0.07
- GCGTGGAGGA — within error, 1.05 ± 0.026
- AAGGGCAGTA — within error, 0.998 ± 0.01
- ATTGACGTAC — higher, 1.76 ± 0.083
- GTTTGGCCGT — within error, 0.97 ± 0.035
- CAGGCGACTG — within error, 0.9706 ± 0.0041
- GGTCGACTTT — the same, 1.0094 ± 0.00072
- GACTTGTGGG — within error, 1.02 ± 0.084
- TTTTTGGCCC — within error, 0.9649 ± 0.0018
- ATTGAGGCTC — within error, 0.985 ± 0.012
- GCGTATGCCC — within error, 1.019 ± 0.0062
- TTTGCACCAT — within error, 1.03 ± 0.017
- CGGAAGAAAT — within error, 1.02 ± 0.017
- TGCGGTCGCG — within error, 0.959 ± 0.012
- TGAGTGGGAG — within error, 0.998 ± 0.021
- AATGTGTGGG — the same, 1.01 ± 0.02
- AAGAAAGGAA — within error, 0.951 ± 0.029
- GTTGTTGGGA — within error, 0.9898 ± 0.003
- ATTCTTTACA — within error, 1.06 ± 0.014
- ACCCTCTGGG — the same, 1.01 ± 0.021
- GTGGTTTTGA — within error, 0.9832 ± 0.0064
- GGGAGGGAGG — within error, 0.988 ± 0.021
- TTGGTGTTAG — within error, 0.973 ± 0.031
- AGTCGCCCGC — within error, 1.02 ± 0.032
- TCGTACAGGG — within error, 1.03 ± 0.047
- TTGTTAGCCC — within error, 1.026 ± 0.0026
- GATTCTGATT — within error, 0.9756 ± 0.0036
- CTTTGGGGGT — within error, 0.979 ± 0.019
- AGGATGAAAT — within error, 0.992 ± 0.051
- TAAAAAGACG — within error, 1.04 ± 0.075
- TGGTCAAATC — within error, 1 ± 0.051
- CAATGAGTCT — within error, 1.03 ± 0.035
- ACGAAGGCTA — higher, 1.14 ± 0.028
- TCTGGGGCTG — within error, 0.969 ± 0.016
- AGGGTCTTGA — the same, 1.007 ± 0.0017
- TGGTTTTGGG — within error, 0.992 ± 0.021
- GGGGTTTTAA — within error, 0.988 ± 0.02
- ATATTGATTA — within error, 1.02 ± 0.032
- TGTTTGGTTT — the same, 1.01 ± 0.013
- TAGAGACTAA — within error, 0.979 ± 0.029
- TGGTCTTAGA — the same, 1.01 ± 0.012
- CGTCATGTCT — within error, 1 ± 0.065
- CCGTGAGGGT — within error, 1.02 ± 0.038
- AGGGGCCAGT — within error, 0.98 ± 0.019
- TAAGGGTTCT — within error, 0.9916 ± 0.0089
- AATGTTCACG — within error, 1.02 ± 0.019
- ACTGAGTGGC — within error, 1.06 ± 0.029
- TTATGGATGT — within error, 1.03 ± 0.013
- ATTACTCTAC — higher, 1.27 ± 0.025
- GGTATTACGA — within error, 0.989 ± 0.036
- TTAAATCGTG — the same, 1.01 ± 0.054
- GTGCGAACTT — the same, 1.015 ± 0.0028
- CGGTTGGAGC — within error, 0.988 ± 0.042
- TATCACATTG — within error, 0.992 ± 0.039
- ACGGTTCAAT — within error, 1.05 ± 0.011
- CGGAAAGCG — within error, 1 ± 0.026
- GAAAGTCGGA — within error, 0.998 ± 0.066
- ATTGAAGGCA — within error, 0.966 ± 0.011
- TTGGGGGGGA — within error, 1.02 ± 0.13
- TATATTTCTA — within error, 0.999 ± 0.035
- AGCTGAGGAG — the same, 1.0063 ± 7.3e-05
- TTTTAGGGGC — within error, 1.13 ± 0.23
- TGGTATGGTT — within error, 0.996 ± 0.011
- GGGTTTTGCT — within error, 0.955 ± 0.028
- AGGCCGGTGC — within error, 1.04 ± 0.03
- AATACTGTGC — within error, 0.947 ± 0.064
- TTAATTCATG — the same, 1.01 ± 0.017
- TGTTGGTGC — within error, 1.04 ± 0.013
- CTCTGTGGAC — higher, 2.11 ± 0.27
- AAATTAAATC — within error, 0.993 ± 0.043
- ATTTCAGGGT — within error, 1 ± 0.015
- ATTTGTGAAC — within error, 1.02 ± 0.024
- TGCGGCCGGG — the same, 1.01 ± 0.012
- TTCAGCGTCT — within error, 0.975 ± 0.043
- TCTGGGCAGC — within error, 1.04 ± 0.05
- TAGGTCGGTG — within error, 0.993 ± 0.011
- TGGGTGGTGC — within error, 0.965 ± 0.011
- GTTTGTGCT — within error, 0.988 ± 0.019
- TAATCAATAT — the same, 1.013 ± 0.0017
- AAAGACAGTG — the same, 1.01 ± 0.058
- GGAATCCGGC — within error, 1.06 ± 0.02
- CGGTTTGCGT — within error, 0.9748 ± 0.0029
- TTGTGGTGTT — within error, 0.986 ± 0.023
- TAATATAGGT — within error, 1.018 ± 0.0097
- CTCGTTCTAT — within error, 1.002 ± 0.0057
- TGCATGTTGG — within error, 0.9937 ± 0.0017
- TGAGGAAGGC — within error, 0.992 ± 0.039
- GTGTTCATCG — within error, 0.973 ± 0.037
- CACGGAGGAG — within error, 1.05 ± 0.055
- GAGGCTGGGC — within error, 0.973 ± 0.053
- CGGCATATAG — higher, 1.99 ± 0.2
- TGTTGTTTAA — within error, 1.04 ± 0.086
- CGGCCGGACT — the same, 1.01 ± 0.047
- CCACGGACAA — higher, 1.645 ± 0.0082
- TTTTTCACTA — within error, 1.03 ± 0.033
- TTACTTAGGG — within error, 1.14 ± 0.17
- TTTTTTTGTC — within error, 1.02 ± 0.028
- AGGGGTGCTA — within error, 0.9996 ± 0.0095
- TTGGGAGGCG — within error, 0.97 ± 0.039
- AAATTTGGGC — within error, 0.961 ± 0.02
- GCTTTTTTTT — the same, 1.01 ± 0.019
- CAAATTCGAG — within error, 0.984 ± 0.0033
- CGGGGTTCTT — within error, 1.02 ± 0.031
- TTGCTTTGTA — within error, 0.943 ± 0.018
- TGGGCCGAGG — within error, 1.12 ± 0.063
- TCGACGGGTG — within error, 1.02 ± 0.043
- AAACTCATGA — within error, 0.983 ± 0.02
- CGCTATTTCT — within error, 1.1 ± 0.051
- GGTGTATAGT — within error, 0.9908 ± 0.0079
- GATTGTGTTA — the same, 1.01 ± 0.043
- CTACTGCCGT — within error, 1.02 ± 0.034
- TCGTATGATA — within error, 0.968 ± 0.036
- GACGGCTGCT — the same, 1.01 ± 0.0042
- CTTCGTGGCC — within error, 1.04 ± 0.036
